Laboratory results published in publication PMC2757176.

Target: PLC-γ1 (UniProt Q62077)
Assay: IP of PLC-γ1, blot for EAT-2
Settings: reference: wild type EGFP-EAT-2; sites Y120,Y127

EAT-2 (from UniProt O35324) Y120F + Y127F double mutant (FF)
binding against the reference: lost
